Measurements taken from patent publication US20230167482A1, “FUNCTIONAL CYTOCHROME P450 IN VITRO ASSAY” (PharmGenetix GmbH, priority 2019, published 2023).
Substitutions are numbered along the chain they refer to.

B1: *10: human CYP2D6 variant allele *10 (PV00435), SEQ ID NO: 6 (protein, UniProt P10635 1-497, looked up, variant P34S S486T)
Cytochrome P450 2D6: MGLEALVPLAVIVAIFLLLVDLMHRRQRWAARYSPGPLPLPGLGNLLHVDFQNTPYCFDQLRRRFGDVFSLQLAWTPVVVLNGLAAVREALVTHGEDTADRPPVPITQILGFGPRSQGVFLARYGPAWREQRRFSVSTLRNLGLGKKSLEQWVTEEAACLCAAFANHSGRPFRPNGLLDKAVSNVIASLTCGRRFEYDDPRFLRLLDLAQEGLKEESGFLREVLNAVPVLLHIPALAGKVLRFQKAFLTQLDELLTEHRMTWDPAQPPRDLTEAFLAEMEKAKGNPESSFNDENLRIVVADLFSAGMVTTSTTLAWGLLLMILHPDVQRRVQQEIDDVIGQVRRPEMGDQAHMPYTTAVIHEVQRFGDIVPLGVTHMTSRDIEVQGFRIPKGTTLITNLSSVLKDEAVWEKPFRFHPEHFLDAQGHFVKPEAFLPFSAGRRACLGEPLARMELFLFFTSLLQHFSFSVPTGQPRPSHHGVFAFLVTPSPYELCAVPR
B2: *14: human CYP2D6 variant allele *14 (PV00439), SEQ ID NO: 7 (protein, UniProt P10635 1-497, looked up, variant P34S G169R R296C S486T)
Cytochrome P450 2D6: B1 Cytochrome P450 2D6 with G169R, R296C
B3: *29: human CYP2D6 variant allele *29 (PV00453), SEQ ID NO: 8 (protein, UniProt P10635 1-497, looked up, variant V136I R296C V338M S486T)
Cytochrome P450 2D6: B1 Cytochrome P450 2D6 with S34P, V136I, R296C, V338M
B4: *9: human CYP2D6 variant allele *9 (PV00434), SEQ ID NO: 5 (protein, UniProt P10635 1-497, looked up, variant K281*)
Cytochrome P450 2D6: MGLEALVPLAVIVAIFLLLVDLMHRRQRWAARYPPGPLPLPGLGNLLHVDFQNTPYCFDQLRRRFGDVFSLQLAWTPVVVLNGLAAVREALVTHGEDTADRPPVPITQILGFGPRSQGVFLARYGPAWREQRRFSVSTLRNLGLGKKSLEQWVTEEAACLCAAFANHSGRPFRPNGLLDKAVSNVIASLTCGRRFEYDDPRFLRLLDLAQEGLKEESGFLREVLNAVPVLLHIPALAGKVLRFQKAFLTQLDELLTEHRMTWDPAQPPRDLTEAFLAEMEAKGNPESSFNDENLRIVVADLFSAGMVTTSTTLAWGLLLMILHPDVQRRVQQEIDDVIGQVRRPEMGDQAHMPYTTAVIHEVQRFGDIVPLGVTHMTSRDIEVQGFRIPKGTTLITNLSSVLKDEAVWEKPFRFHPEHFLDAQGHFVKPEAFLPFSAGRRACLGEPLARMELFLFFTSLLQHFSFSVPTGQPRPSHHGVFAFLVSPSPYELCAVPR

System: CYP2D6
Experiment: Functional CYP2D6 in vitro assay: HEK-Blue cells transiently transfected with a CYP2D6 variant, P450-Glo luminescence with Luciferin-ME EGE, normalized to secreted NanoLuc
Assay type: cell-based, human
Settings: one-way ANOVA followed by Dunnett post hoc test, categories: loss, decrease, normal, increase of function
Experimental: Therefore the CYP2D6 coding sequence (CDS) of interest is cloned into pcDNA3.1-HISC vector, and variants of interest are produced via site-directed mutagenesis (FIG. 1; step 1).
pcDNA3.1-HISC (A) and pNL1.3CMV[secNluc/CMV] (B) vectors are co-transfected in HEK-Blue™ cells (FIG. 1; step 2). 48 hours after transfection, secreted NanoLuc is detected and measured by luminescence using a multi-plate reader (FIG. 1; step 3). Following NanoLuc detection, old media is replaced with Luciferin ME-EGE containing media (FIG. 1; step 4). After 3 hours incubation at 37° C., cells are lysed and luciferin production (proportional to CYP2D6 activity) is measured using a multi-plate reader (FIG. 1; step 5).
CYP2D6 cDNA was obtained from total liver RNA (Ambion®, Life Technology, Wien, Austria), following Reverse-Transcription-PCR (RT-PCR) using the Quantitect® Reverse Transcription kit (Qiagen, Hilden, Germany) following manufacturer instructions. The CYP2D6 coding sequence (CDS) was then amplified using the following oligonucleotide primers: 5′-[…]-3′ (forward primer) and 5′-[…]-3′ (reverse primer). The CYP2D6 CDS was then cloned into the pcDNA3.1-HISC eukaryotic protein expression vector under the control of the CMV immediate enhancer and promoter, using the NheI and KpnI restriction digestion enzymes (Thermo Scientific, Waltham, Mass., USA). […] All the other tested CYP2D6 variants were similarly created. After production, vectors and cloned inserts were verified with Sanger sequencing against the wild-type reference sequence (SEQ ID No: 2).
Cell culture and transfection Human Embryonic Kidney (HEK)-Blue (HEK-Blue™ IL-4/IL-13 cells, Invivogen, Toulouse, France) cells, an engineered cell line derived from HEK-293 cells, were cultured in a humidified incubator at 37° C. with 5% CO2 with Dulbecco's Modified Eagles Medium (DMEM) supplemented with 4.5 g/L glucose, 10% (v/v) Fetal Bovine Serum (FBS), 1.5% NaHCO3, 50 U/mL penicillin, 50 μg/mL streptomycin, 10 μg/mL Blasticidin and 100 μg/mL Zeocin™ (Invivogen, Toulouse, France). Media was replaced three times weekly. […]
Forty-eight hours following transfection, a 20 μL aliquot of the supernatant was transferred from each well into a new white 96-well Nunclon™ A Surface plate for the detection of the secreted NanoLuc® levels using the Nano-Glo® Luciferase assay (Promega, Mannheim, Germany). […] Following three minutes incubation at room temperature (RT), luminescence was measured using the Spark® 10M multimode multiplate reader (Tecan, Grodig, Austria), keeping an optical density filter of 1 (OD1) and 1 second of integration time. Luminescence levels directly correspond to the amount of secreted NanoLuc®, which is used for normalization of transfection efficiency. […]

| Molecule | function category of the variant versus *1 and *3 controls |
| --- | --- |
| B1 | decrease of function |
| B2 | decrease of function |
| B3 | decrease of function |
| B4 | decrease of function |
